Test results: patent publication US20160122426A1 (DONG A SOCIO, published 2016)

T1: mouse VEGF (mouse, UniProt Q00731-2 27-190)
T1 construct: Bought recombinant protein; also called mVEGF-A; mouse VEGF-A
T1 sequence (looked up): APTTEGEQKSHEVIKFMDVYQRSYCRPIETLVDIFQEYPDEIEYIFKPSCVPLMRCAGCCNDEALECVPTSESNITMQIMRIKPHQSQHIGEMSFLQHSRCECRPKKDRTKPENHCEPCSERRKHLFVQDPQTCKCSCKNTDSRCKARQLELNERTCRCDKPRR

T2: human VEGF-B (human, UniProt P49765-2 22-188, limits assumed)
T2 construct: also called hVEGF-B
T2 sequence (looked up): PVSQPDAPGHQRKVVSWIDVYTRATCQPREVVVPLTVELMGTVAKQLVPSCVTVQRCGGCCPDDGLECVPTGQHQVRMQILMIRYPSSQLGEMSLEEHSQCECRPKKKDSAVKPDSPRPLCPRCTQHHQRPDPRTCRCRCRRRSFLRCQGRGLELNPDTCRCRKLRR

T3: human VEGF-C (human, UniProt P49767 103-227, limits assumed)
T3 construct: also called hVEGF-C
T3 sequence (looked up): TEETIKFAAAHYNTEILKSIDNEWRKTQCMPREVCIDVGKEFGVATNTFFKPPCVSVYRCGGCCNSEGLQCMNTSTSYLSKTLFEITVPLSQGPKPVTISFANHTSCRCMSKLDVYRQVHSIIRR

T4: human VEGF-D (human, UniProt O43915 93-201, limits assumed)
T4 construct: also called hVEGF-D
T4 sequence (looked up): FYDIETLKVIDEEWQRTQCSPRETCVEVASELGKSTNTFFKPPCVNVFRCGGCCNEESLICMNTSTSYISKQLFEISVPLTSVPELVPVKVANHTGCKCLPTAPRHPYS

T5: human placental growth factor (human, UniProt P49763-2 21-149, limits assumed)
T5 construct: also called PlGF; PIGF
T5 sequence (looked up): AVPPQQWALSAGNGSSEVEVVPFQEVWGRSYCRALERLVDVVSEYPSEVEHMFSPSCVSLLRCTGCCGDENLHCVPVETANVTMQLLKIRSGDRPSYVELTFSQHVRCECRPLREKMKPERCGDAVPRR


Tests used:
human VEGF [1] = molecular target: T6, human VEGF (human, UniProt P15692-4 27-191); experiment: SPR (BIAcore X100), VEGF on CM5 chip, IgG injected, 1:1 Langmuir
T6 construct: Bought recombinant protein; also called hVEGF; human VEGF-A
Source text: Meanwhile, to measure the affinity, human VEGF and mouse VEGF were coupled to carboxymethylated dextran biosensor chips (CM5, GE) according to the manufacturer's instructions.
The association and dissociation rates were expressed by the association and dissociation sensorgram, and calculated using a simple 1:1 Langmuir binding model (BIAcore X100 evaluation software, ver. 2.0).
Target sequence in this assay (P15692 other isoform, or with tags, fused parts or gaps limits assumed): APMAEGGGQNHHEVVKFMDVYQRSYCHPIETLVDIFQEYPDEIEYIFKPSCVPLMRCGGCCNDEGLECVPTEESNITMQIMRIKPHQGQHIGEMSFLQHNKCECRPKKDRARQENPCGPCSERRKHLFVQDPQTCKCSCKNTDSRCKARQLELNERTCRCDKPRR

human VEGF [2] = molecular target: T6, human VEGF; experiment: competition ELISA: human VEGF coated, 9 nM KDR ECD IgG-Fc (VEGFR2) added together with the antibody, bound receptor-Fc detected, absorbance 405 nm
Protocol: 0.5 μg/ml of human VEGF was coated to 96-well ELISA plate and blocked with PBS solution containing 3% BSA and 0.05% Tween 20.

human VEGF [3] = molecular target: T6, human VEGF; experiment: ELISA, human VEGF coated, anti-human Fc-HRP, absorbance 450 nm [c]
Protocol: (§1) 1.5 ng of human VEGF diluted in 150 μL of buffer solution was placed in 96-well immune plate (Nunc, USA), and adsorbed at 4° C. overnight, followed by washing 3 times with a buffer solution containing 0.1% Tween 20. Then, they were reacted with a buffer solution including 1% bovine serum albumin (Sigma, USA) for 1 hr at room temperature, and washed 3 times. Then each well was treated with 150 μL of serially diluted antibody (1 ng/mL, 10 ng/mL, 30 ng/mL, 100 ng/mL, 1000 ng/mL and 3000 ng/mL) They were allowed to react for 1 hr at room temperature so that antigens may bind to antibodies, followed by washing 3 times with a buffer solution.
(§2) Each well was treated at 150 μL per well with anti-human immunoglobulin Fc-HRP antibody (AbSerotec, USA) diluted 1:20000 and allowed to react for 1 hr at room temperature. After the reaction was completed, washing was performed 3 times with a buffer solution, followed by addition of 150 μL of TMB (Sigma, USA) and color development for 10 min. The reaction was terminated with 1N sulfuric acid solution, and absorbance was measured at 450 nm using a spectrophotometer (Molecular Device, USA).

mouse VEGF [4] = molecular target: T1, mouse VEGF; experiment: ELISA, mouse VEGF coated, anti-human Fc-HRP, absorbance 450 nm [a]
human VEGF [5] = molecular target: T6, human VEGF; experiment: ELISA, human VEGF coated, anti-human Fc-HRP, absorbance 450 nm [b]
Protocol: as §1, §2

human VEGF [6] = molecular target: T6, human VEGF; experiment: ELISA and BIAcore
mouse VEGF [7] = molecular target: T1, mouse VEGF; experiment: ELISA and BIAcore
human VEGF-B = molecular target: T2, human VEGF-B; experiment: ELISA, 0.2 ug/ml protein coated, anti-human IgG-Fab-HRP, absorbance 650 nm; antibody concentration not shown
Protocol: (§3) 0.2 μg/ml each of the respective proteins (hVEGF-A, mVEGF-A, hVEGF-B, hVEGF-C, hVEGF-D and PlGF) (R&D systems) were coated to the wells of ELISA plate, respectively. After blocking them with PBS containing 3% BSA and 0.05% Tween 20 for 30 min at 37° C., antibody clone proteins of increasing concentrations were incubated at 37° C. for 2 hr. Then, the wells were washed with PBS containing 3% BSA and 0.05% Tween 20 for 3 times, and anti-human IgG-Fab-HRP conjugate (Jackson Immunoresearch, USA) was added thereto and incubated for 1 hr at room temperature. Then they were washed with PBS containing 3% BSA and 0.05% Tween 20 for 3 times, and developed using TMB, and absorbance was measured at 650 nm.

human VEGF-C = molecular target: T3, human VEGF-C; experiment: as above
Protocol: as §3

human VEGF-D = molecular target: T4, human VEGF-D; experiment: as above
Protocol: as §3

[8] = molecular target: T5, human placental growth factor; experiment: as above
Protocol: as §3

human VEGF [9] = molecular target: T6, human VEGF; experiment: ELISA, human VEGF coated, absorbance 650 nm [g]

Binder | Kd (human VEGF [1]) [pM] | koff (human VEGF [1]) [s⁻¹] | kon (human VEGF [1]) [M⁻¹ s⁻¹] | IC50 (read off the curve) (human VEGF [2]) [pM] | EC50 (read off the curve) (human VEGF [3]) [µg/mL] | EC50 (read off the curve) (mouse VEGF [4]) [µg/mL] | EC50 (read off the curve) (human VEGF [5]) [µg/mL] | fold affinity over mother clone F (human VEGF [6]) [times] | fold affinity over mother clone F (mouse VEGF [7]) [times] | binding result (human VEGF-B) | binding result (human VEGF-C) | binding result (human VEGF-D) | binding result [8] | EC50 (read off the curve) (human VEGF [9]) [pM]
HF2-5 (antibody, V domains shown, also called HF-5) VH: EVQLVESGGGLVQPGGSLRLSCAASGFMIRSHGMQWVRQAPGKGLEYVAGISSDGSWARHSAAVEGRFTISRDDSKNTAYLQMNSLRAEDTAVYYCARDFSTGYGADSIDAWGQGTLVTVSS VL: DIQMTQSPSSLSASVGDRVTITCSGGSDSAYGYGWYQQKPGKAPKTLIYWDDKRPSGVPSRFSGSRSGTDFTLTISSLQPEDFATYYCGAWEYSGGVGIFGQGTKVEIK | 19 | 2.6e-05 | 1.3e+06 | ~5000 | ~0.02 | ~0.06 | ~0.04 | ≥ 10 | ≥ 10 | no binding | no binding | no binding | no binding | –
HF2-9 (antibody, V domains shown, also called HF-9) VH: EVQLVESGGGLVQPGGSLRLSCAASMFRIRSHGMQWVRQAPGKGLEYVAGISSDGSWFRVAAAVEGRFTISRDDSKNTAYLQMNSLRAEDTAVYYCARDFSTGYGADSIDAWGQGTLVTVSS VL: DIQMTQSPSSLSASVGDRVTITCSGGSMEPLGYGWYQQKPGKAPKTLIYWDDKRPSGVPSRFSGSRSGTDFTLTISSLQPEDFATYYCGAWEYSGGVGIFGQGTKVEIK | 18 | 3.2e-05 | 1.7e+06 | ~5000 | – | ~0.05 | ~0.04 | ≥ 10 | ≥ 10 | no binding | no binding | no binding | no binding | –
HF2-4 (antibody, V domains shown, also called HF-4) VH: EVQLVESGGGLVQPGGSLRLSCAASGWSMRSHGMQWVRQAPGKGLEYVAGISSDGSWRRHSAAVEGRFTISRDDSKNTAYLQMNSLRAEDTAVYYCARDFSTGYGADSIDAWGQGTLVTVSS VL: DIQMTQSPSSLSASVGDRVTITCSGGSDSAYGYGWYQQKPGKAPKTLIYWDDKRPSGVPSRFSGSRSGTDFTLTISSLQPEDFATYYCGAWEYSGGVGIFGQGTKVEIK | 1.9 | 3.1e-06 | 1.6e+06 | – | ~0.02 | – | – | ≥ 10 | ≥ 10 | – | – | – | – | –
HF2-8 (antibody, V domains shown, also called HF-8) VH: EVQLVESGGGLVQPGGSLRLSCAASGFHIRSHGMQWVRQAPGKGLEYVAGISSDGSWLKLSAAVEGRFTISRDDSKNTAYLQMNSLRAEDTAVYYCARDFSTGYGADSIDAWGQGTLVTVSS VL: DIQMTQSPSSLSASVGDRVTITCSGGSTYSLGYGWYQQKPGKAPKTLIYWDDKRPSGVPSRFSGSRSGTDFTLTISSLQPEDFATYYCGAWEYSGGVGIFGQGTKVEIK | 36 | 5.7e-05 | 1.5e+06 | – | ~0.02 | – | – | ≥ 10 | ≥ 10 | – | – | – | – | –

Next, values leading:

Kd (human VEGF [1]) [pM] | koff (human VEGF [1]) [s⁻¹] | kon (human VEGF [1]) [M⁻¹ s⁻¹] | IC50 (read off the curve) (human VEGF [2]) [pM] | EC50 (read off the curve) (human VEGF [3]) [µg/mL] | EC50 (read off the curve) (mouse VEGF [4]) [µg/mL] | EC50 (read off the curve) (human VEGF [5]) [µg/mL] | fold affinity over mother clone F (human VEGF [6]) [times] | fold affinity over mother clone F (mouse VEGF [7]) [times] | binding result (human VEGF-B) | binding result (human VEGF-C) | binding result (human VEGF-D) | binding result [8] | EC50 (read off the curve) (human VEGF [9]) [pM] | Binder
– | – | – | – | – | – | – | ≥ 10 | ≥ 10 | – | – | – | – | ~100 | HF2-19 (antibody, V domains shown) VH: EVQLVESGGGLVQPGGSLRLSCAASGFSTRSHGMQWVRQAPGKGLEYVAGISSDGSWKATAAAVEGRFTISRDDSKNTAYLQMNSLRAEDTAVYYCARDFSTGYGADSIDAWGQGTLVTVSS VL: DIQMTQSPSSLSASVGDRVTITCSGGSDSAYGYGWYQQKPGKAPKTLIYWDDKRPSGVPSRFSGSRSGTDFTLTISSLQPEDFATYYCGAWEYSGGVGIFGQGTKVEIK
– | – | – | – | – | – | – | ≥ 10 | ≥ 10 | – | – | – | – | ~200 | HF2-25 (antibody, V domains shown) VH: EVQLVESGGGLVQPGGSLRLSCAASYMEYRSHGMQWVRQAPGKGLEYVAGISSDGSWFRMNAAVEGRFTISRDDSKNTAYLQMNSLRAEDTAVYYCARDFSTGYGADSIDAWGQGTLVTVSS VL: DIQMTQSPSSLSASVGDRVTITCSGGSNFPMGYGWYQQKPGKAPKTLIYWDDKRPSGVPSRFSGSRSGTDFTLTISSLQPEDFATYYCGAWEYSGGVGIFGQGTKVEIK
4.7 | 6.8e-06 | 1.4e+06 | ~5000 | – | ~0.05 | ~0.04 | ≥ 10 | ≥ 10 | no binding | no binding | no binding | no binding | – | HF2-11 (antibody, V domains shown, also called HF-11; clone HF2-11) VH: EVQLVESGGGLVQPGGSLRLSCAASGFLIRSHGMQWVRQAPGKGLEYVAGISSDGSWVKVAAAVEGRFTISRDDSKNTAYLQMNSLRAEDTAVYYCARDFSTGYGADSIDAWGQGTLVTVSS VL: DIQMTQSPSSLSASVGDRVTITCSGGSSEPLGYGWYQQKPGKAPKTLIYWDDKRPSGVPSRFSGSRSGTDFTLTISSLQPEDFATYYCGAWEYSGGVGIFGQGTKVEIK
